What was measured:
[1] = biological target: JR-FL Env N611D (variant pseudovirus) (HIV-1 isolate JR-FL)
[2] = biological target: JR-CSF Env S613A (variant pseudovirus) (HIV-1 isolate JR-CSF)
[3] = biological target: LAI Env N637K (variant virus) (HIV-1 strain LAI)
[4] = biological target: JR-CSF Env N611A (variant pseudovirus) (HIV-1 isolate JR-CSF)
[5] = biological target: LAI Env N611D (variant virus) (HIV-1 strain LAI)
[6] = biological target: LAI Env N611A (variant virus) (HIV-1 strain LAI)
[7] = biological target: LAI Env E647G (variant virus) (HIV-1 strain LAI)
[8] = biological target: JR-FL Env N611A (variant pseudovirus) (HIV-1 isolate JR-FL)
[9] = biological target: JR-CSF Env E647A (variant pseudovirus) (HIV-1 isolate JR-CSF)
[10] = biological target: LAI Env A501T (variant virus) (HIV-1 strain LAI)
[11] = biological target: JR-CSF Env N637A (variant pseudovirus) (HIV-1 isolate JR-CSF)
[12] = biological target: JR-FL Env N637A (variant pseudovirus) (HIV-1 isolate JR-FL)
[13] = biological target: JR-FL Env N637K (variant pseudovirus) (HIV-1 isolate JR-FL)
[14] = biological target: LAI Env E647A (variant virus) (HIV-1 strain LAI)
[15] = biological target: JR-CSF Env E647G (variant pseudovirus) (HIV-1 isolate JR-CSF)
[16] = biological target: LAI Env N637A (variant virus) (HIV-1 strain LAI)
[17] = biological target: JR-CSF Env wild type (pseudovirus) (HIV-1 isolate JR-CSF) (UniProt P20871)
Chain of UniProt P20871 (P20871 32-848): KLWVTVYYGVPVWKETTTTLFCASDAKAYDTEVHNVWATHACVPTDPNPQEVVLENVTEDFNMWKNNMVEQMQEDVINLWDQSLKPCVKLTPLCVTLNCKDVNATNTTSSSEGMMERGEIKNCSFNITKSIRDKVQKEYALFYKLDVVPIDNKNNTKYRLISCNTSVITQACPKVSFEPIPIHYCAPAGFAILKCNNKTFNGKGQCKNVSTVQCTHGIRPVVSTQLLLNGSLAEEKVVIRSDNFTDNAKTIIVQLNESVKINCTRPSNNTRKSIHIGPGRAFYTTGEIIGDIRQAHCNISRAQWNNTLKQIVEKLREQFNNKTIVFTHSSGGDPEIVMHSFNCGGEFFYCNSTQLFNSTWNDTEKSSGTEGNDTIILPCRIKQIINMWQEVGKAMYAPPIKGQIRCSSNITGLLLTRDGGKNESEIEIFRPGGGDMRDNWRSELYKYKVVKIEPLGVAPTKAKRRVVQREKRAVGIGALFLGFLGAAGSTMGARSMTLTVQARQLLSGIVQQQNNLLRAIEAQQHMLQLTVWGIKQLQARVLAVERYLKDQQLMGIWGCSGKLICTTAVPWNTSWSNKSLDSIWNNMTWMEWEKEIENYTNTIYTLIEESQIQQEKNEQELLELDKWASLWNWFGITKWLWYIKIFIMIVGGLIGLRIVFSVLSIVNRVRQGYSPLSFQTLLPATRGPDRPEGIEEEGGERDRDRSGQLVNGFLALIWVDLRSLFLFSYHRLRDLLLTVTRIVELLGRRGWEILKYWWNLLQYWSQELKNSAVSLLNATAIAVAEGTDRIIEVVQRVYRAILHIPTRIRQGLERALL

[18] = biological target: JR-CSF Env N611D (variant pseudovirus) (HIV-1 isolate JR-CSF)
[19] = biological target: JR-FL Env E647A (variant pseudovirus) (HIV-1 isolate JR-FL)
[20] = biological target: JR-CSF Env N637K (variant pseudovirus) (HIV-1 isolate JR-CSF)
[21] = biological target: JR-FL Env E647G (variant pseudovirus) (HIV-1 isolate JR-FL)
[22] = biological target: LAI Env wild type (virus) (HIV-1 strain LAI) (UniProt P03377)
[23] = biological target: JR-CSF Env T639A (variant pseudovirus) (HIV-1 isolate JR-CSF)

Work on PGT151 (antibody) yielded a %Maximum neutralization (JR-FL) [1] of 8%, a %Maximum neutralization (JR-CSF) [2] of 41% and a %Maximum neutralization (LAI) [3] of 37%. It also gave a %Maximum neutralization (JR-CSF) [4] of 44%, a %Maximum neutralization (LAI) [5] of 45% and a %Maximum neutralization (LAI) [6] of 81%. For the same substance, the %Maximum neutralization (LAI) [7] was 95%, the %Maximum neutralization (JR-FL) [8] was 31% and the %Maximum neutralization (JR-CSF) [9] was 33%. It also gave a %Maximum neutralization (LAI) [10] of 75%, a %Maximum neutralization (JR-CSF) [11] of 50% and a %Maximum neutralization (JR-FL) [12] of 65%. The %Maximum neutralization (JR-FL) [13] was 33%, the %Maximum neutralization (LAI) [14] was 96% and the %Maximum neutralization (JR-CSF) [15] was 7%. It also gave a %Maximum neutralization (LAI) [16] of 70%, a %Maximum neutralization (JR-CSF) [17] of 93% and a %Maximum neutralization (JR-CSF) [18] of 0%. For the same substance, the %Maximum neutralization (JR-FL) [19] was 72%, the %Maximum neutralization (JR-CSF) [20] was 20% and the %Maximum neutralization (JR-FL) [21] was 94%. The %Maximum neutralization (LAI) [22] was 100% and the %Maximum neutralization (JR-CSF) [23] was 52%.

From article PMC4070425
